Assays:
[1] = target: human Claudin18.2 (human) (UniProt P56856); experiment: cell-based or functional assay
[2] = target: human Claudin18.2 (human) (UniProt P56856); experiment: flow cytometry (IntelliCyt) on Ba/F3-Claudin 18.2 cells

Row | ADCC EC50 [1] | Max MFI [2] | Binder | ADCC Max killing rate % [1]
1 | 0.08 µg/mL | 8.99e+06 MFI | humanized antibody 1E9.2-hz15 (antibody, human IgG1, kappa, V domains shown) VH: EVQLVESGGGLVKPGGSLRLSCAASGFSFSNSAMSWVRQAPGKGLEWVSTISSGDSYTYYADSVKGRFTISRDNAKNSLYLQMNSLRAEDTAVYYCARQGYGNALDYWGQGTLVTVSS VL: DIVMTQTPLSLPVTPGEPASISCKSSQSLLNSGNQKNYLTWYLQKPGQSPQLLIYWSSTRESGVPDRFSGSGSGTDFTLKISRVEAEDFGVYYCQNDYYYPLTFGGGTKVEIKR | 66.2%
2 | 0.113 µg/mL | 5.9e+06 MFI | humanized antibody 1E9.2-hz17 (antibody, human IgG1, kappa, V domains shown) VH: EVQLVESGGGLVKPGGSLRLSCAASGFSFSNSAMSWVRQAPGKGLEWVSTISSGDSYTYYADSVKGRFTISRDNAKNSLYLQMNSLRAEDTAVYYCARQGYGNALDYWGQGTLVTVSS VL: DIVMTQTPLSLPVTPGEPASISCKSSQSLLQSGNGKNYLTWYLQKPGQSPQLLIYWSSTRESGVPDRFSGSGSGTDFTLKISRVEAEDFGVYYCQNDYYYPLTFGGGTKVEIKR | 59.6%
